The results in this text go back to patent publication US20120035244A1 (REGENTS OF THE UNIVERSITY OF MICHIGAN, published 2012).

To fix the notation:
B2: ERG, TMPRSS2:ERG gene fusion product (TMPRSS2 exon 1 fused to ERG1 exon 2) (other, human, UniProt P11308 33-479, looked up)
chain: MTASSSSDYGQTSKMSPRVPQQDWLSQPPARVTIKMECNPSQVNGSRNSPDECSVAKGGKMVGSPDTVGMNYGSYMEEKHMPPPNMTTNERRVIVPADPTLWSTDHVRQWLEWAVKEYGLPDVNILLFQNIDGKELCKMTKDDFQRLTPSYNADILLSHLHYLRETPLPHLTSDDVDKALQNSPRLMHARNTGGAAFIFPNTSVYPEATQRITTRPDLPYEPPRRSAWTGHGHPTPQSKAAQPSPSTVPKTEDQRPQLDPYQILGPTSSRLANPGSGQIQLWQFLLELLSDSSNSSCITWEGTNGEFKMTDPDEVARRWGERKSKPNMNYDKLSRALRYYYDKNIMTKVHGKRYAYKFDFHGIAQALQPHPPESSLYKYPSDLPYMGSYHAHPQKMNFVAPHPPALPVTSSSFFAAPNPYWNSPTGGIYPNTRLPTSHMPSHLGTYY
notes: Untagged fusion product: endogenous in VCaP cells and in ERG fusion-positive human prostate cancer tissues; no tag stated; also called TMPRSS-ERG gene fusion product; endogenous gene fusion product

The target of assay [1] is B2. Description: ERG immunoprecipitation from VCaP cells, Western blot (FIG. 1b). (In western blotting, separated proteins are transferred to a membrane and probed.)
The target of assay [2] is ATR (human, UniProt Q13535 1-2644). As to the kind of experiment: ERG immunoprecipitation from VCaP cells, Western blot (FIG. 8b).
Sequence of ATR (Q13535 whole entry): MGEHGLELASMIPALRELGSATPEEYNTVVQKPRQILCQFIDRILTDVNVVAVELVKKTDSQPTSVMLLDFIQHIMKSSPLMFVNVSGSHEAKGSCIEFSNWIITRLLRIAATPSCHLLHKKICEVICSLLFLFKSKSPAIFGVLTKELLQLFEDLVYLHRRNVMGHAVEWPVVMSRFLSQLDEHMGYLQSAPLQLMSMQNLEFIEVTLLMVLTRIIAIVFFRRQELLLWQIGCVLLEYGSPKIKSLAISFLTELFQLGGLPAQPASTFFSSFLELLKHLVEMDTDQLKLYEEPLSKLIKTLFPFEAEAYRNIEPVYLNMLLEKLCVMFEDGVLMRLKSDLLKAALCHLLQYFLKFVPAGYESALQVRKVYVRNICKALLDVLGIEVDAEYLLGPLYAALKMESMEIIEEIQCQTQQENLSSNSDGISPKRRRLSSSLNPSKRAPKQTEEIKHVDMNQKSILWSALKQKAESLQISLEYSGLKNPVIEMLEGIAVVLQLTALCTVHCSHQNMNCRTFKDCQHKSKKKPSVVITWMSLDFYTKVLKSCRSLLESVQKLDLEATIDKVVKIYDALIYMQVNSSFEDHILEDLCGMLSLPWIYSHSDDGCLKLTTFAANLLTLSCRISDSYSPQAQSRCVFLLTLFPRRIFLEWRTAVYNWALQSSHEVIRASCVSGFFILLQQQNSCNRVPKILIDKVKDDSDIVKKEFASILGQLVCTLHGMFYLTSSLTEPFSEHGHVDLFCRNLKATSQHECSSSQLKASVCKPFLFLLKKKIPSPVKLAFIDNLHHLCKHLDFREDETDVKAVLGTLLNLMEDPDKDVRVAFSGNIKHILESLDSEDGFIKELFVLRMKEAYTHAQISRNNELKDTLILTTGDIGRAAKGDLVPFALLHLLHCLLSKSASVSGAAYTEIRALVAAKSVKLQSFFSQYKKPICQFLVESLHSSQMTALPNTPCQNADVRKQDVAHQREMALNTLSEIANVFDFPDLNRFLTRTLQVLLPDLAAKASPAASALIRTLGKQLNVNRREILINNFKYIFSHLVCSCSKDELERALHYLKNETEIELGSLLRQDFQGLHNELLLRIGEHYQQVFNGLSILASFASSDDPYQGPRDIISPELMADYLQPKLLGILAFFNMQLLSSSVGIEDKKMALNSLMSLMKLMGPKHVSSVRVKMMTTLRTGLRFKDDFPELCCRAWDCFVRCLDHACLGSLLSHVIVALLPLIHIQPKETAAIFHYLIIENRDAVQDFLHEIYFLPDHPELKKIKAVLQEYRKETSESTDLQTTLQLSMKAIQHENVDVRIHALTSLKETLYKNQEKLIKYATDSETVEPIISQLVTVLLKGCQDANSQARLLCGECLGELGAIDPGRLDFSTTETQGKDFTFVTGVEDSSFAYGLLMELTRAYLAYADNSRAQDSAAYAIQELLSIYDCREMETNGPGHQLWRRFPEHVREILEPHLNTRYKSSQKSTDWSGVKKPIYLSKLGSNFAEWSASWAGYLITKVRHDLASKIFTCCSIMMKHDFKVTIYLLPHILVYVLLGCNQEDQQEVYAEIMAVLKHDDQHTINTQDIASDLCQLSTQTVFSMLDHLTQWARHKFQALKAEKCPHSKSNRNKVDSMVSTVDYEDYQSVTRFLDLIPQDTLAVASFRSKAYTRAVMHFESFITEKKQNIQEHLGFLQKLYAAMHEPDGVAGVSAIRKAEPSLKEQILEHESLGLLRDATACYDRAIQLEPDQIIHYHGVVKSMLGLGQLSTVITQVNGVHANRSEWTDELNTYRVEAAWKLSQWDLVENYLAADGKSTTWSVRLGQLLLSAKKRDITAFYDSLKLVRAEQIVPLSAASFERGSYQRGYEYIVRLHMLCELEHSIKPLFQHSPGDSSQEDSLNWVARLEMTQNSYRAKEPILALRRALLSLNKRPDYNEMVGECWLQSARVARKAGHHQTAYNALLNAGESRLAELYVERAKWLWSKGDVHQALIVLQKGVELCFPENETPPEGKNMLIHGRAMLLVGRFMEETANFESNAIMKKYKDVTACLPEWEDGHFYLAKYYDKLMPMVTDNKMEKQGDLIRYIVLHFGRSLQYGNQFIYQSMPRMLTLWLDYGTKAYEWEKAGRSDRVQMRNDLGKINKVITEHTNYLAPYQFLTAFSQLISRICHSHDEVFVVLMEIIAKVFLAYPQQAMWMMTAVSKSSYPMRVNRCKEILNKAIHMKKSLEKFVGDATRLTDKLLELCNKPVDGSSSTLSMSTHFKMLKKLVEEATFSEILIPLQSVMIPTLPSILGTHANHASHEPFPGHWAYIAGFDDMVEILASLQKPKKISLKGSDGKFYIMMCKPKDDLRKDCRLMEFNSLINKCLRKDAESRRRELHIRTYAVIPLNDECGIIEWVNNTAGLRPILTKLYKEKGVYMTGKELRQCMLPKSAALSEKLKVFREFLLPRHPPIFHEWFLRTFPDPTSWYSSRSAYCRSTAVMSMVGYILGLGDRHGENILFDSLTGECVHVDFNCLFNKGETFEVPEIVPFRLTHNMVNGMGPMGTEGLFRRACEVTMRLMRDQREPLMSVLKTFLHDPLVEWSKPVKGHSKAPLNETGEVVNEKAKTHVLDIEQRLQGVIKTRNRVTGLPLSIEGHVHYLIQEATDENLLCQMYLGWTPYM

B1: XRCC4 (other, human, UniProt Q13426 1-336, looked up)
chain: MERKISRIHLVSEPSITHFLQVSWEKTLESGFVITLTDGHSAWTGTVSESEISQEADDMAMEKGKYVGELRKALLSGAGPADVYTFNFSKESCYFFFEKNLKDVSFRLGSFNLEKVENPAEVIRELICYCLDTIAENQAKNEHLQKENERLLRDWNDVQGRFEKCVSAKEALETDLYKRFILVLNEKKTKIRSLHNKLLNAAQEREKDIKQEGETAICSEMTADRDPVYDESTDEESENQTDLSGLASAAVSKDDSIISSLDVTDIAPSRKRRQRMQRNLGTEPKMAPQENQLQEKENSRPDSSLPETSKKEHISAENMSLETLRNSSPEDLFDEI
Regarding B1, the binding result in assay [1] is given as “no binding”.

As for B2, the binding result in assay [2] is “no binding”.
